The target of the assay is T1, murine c-FMS (Mus musculus, UniProt P09581).
T1 construct: endogenous in cells; host or cells: primary bone marrow derived monocytes from wild-type C57BL6 mice
T1 sequence (P09581 20-977): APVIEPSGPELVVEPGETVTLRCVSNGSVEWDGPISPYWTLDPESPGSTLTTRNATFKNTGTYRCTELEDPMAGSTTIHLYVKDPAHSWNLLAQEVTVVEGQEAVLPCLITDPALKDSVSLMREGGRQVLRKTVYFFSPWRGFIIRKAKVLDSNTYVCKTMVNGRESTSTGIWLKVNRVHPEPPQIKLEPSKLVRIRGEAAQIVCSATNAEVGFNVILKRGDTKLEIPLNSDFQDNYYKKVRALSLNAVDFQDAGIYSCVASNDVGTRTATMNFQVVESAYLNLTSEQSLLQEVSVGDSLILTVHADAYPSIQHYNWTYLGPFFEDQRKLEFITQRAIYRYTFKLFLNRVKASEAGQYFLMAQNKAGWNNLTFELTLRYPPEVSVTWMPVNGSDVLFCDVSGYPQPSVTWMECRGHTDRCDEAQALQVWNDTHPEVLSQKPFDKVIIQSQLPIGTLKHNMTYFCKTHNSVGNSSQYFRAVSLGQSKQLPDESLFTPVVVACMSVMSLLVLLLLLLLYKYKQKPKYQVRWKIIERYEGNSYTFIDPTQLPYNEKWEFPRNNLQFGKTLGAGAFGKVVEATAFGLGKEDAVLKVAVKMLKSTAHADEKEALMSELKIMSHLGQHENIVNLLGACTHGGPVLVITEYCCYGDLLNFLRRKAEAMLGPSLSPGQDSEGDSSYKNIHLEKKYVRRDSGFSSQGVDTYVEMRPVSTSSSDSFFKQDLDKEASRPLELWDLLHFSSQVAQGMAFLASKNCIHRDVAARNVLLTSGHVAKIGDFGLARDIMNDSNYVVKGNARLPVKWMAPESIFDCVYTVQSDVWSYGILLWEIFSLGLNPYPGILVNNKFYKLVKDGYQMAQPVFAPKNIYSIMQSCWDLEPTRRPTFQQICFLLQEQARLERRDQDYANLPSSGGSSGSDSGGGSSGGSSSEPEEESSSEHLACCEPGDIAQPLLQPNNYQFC
Briefly: c-FMS phosphorylation assay in BMMs (western blot). The settings on record: for c-FMS phosphorylation level: 0.5 nM murine M-CSFWT + 1 μM variant, versus control. It is filed as cell-based. On the procedure:
Phosphorylation assay—The experiment was performed on two cell types, BMMs and human peripheral blood CD14^+ monocytes, as follows: (i) BMMs from wild-type C57BL6 mice were purified by flushing the bone marrow from the femur and tibia as previously described (Levaot, N., Simoncic, P. D., Dimitriou, I.D., Scoffer, A., La Rose, J., Ng, A. H. M. et al. (2011) J. Clin. Invest. 121, 3244-3257). The cells were treated with ACK red cells lysis buffer (ThermoFisher Scientific, USA) and grown in complete α-MEM growth medium (Sigma-Aldrich, USA) containing 10% fetal bovine serum (FBS) (selected to not contain LPS to prevent macrophage differentiation), penicillin, streptomycin and L-glutamine. Recombinant murine M-CSF was added at a concentration of 40 ng/ml (Peprotech, Israel) for three days at 37° C. to induce adhesion and proliferation of monocytes. Then, 7×10^5 cells were transferred into a 6-well plate with complete α-MEM and 20 ng/ml murine M-CSF and RANKL (R&D Systems, USA) for 48 h. (ii) CD 14^+ monocytes (Lonza, Switzerland) were grown in complete α-MEM medium for five days in the presence of human M-CSF (20 ng/mL). Then, 3.5×10^5 cells were transferred to a 24-well plate with complete α-MEM medium, […] human M-CSF (R&D Systems, USA) and 20 ng/ml murine RANKL for 72 h. At this point, the medium was replaced with a starvation medium (α-MEM without FBS) for 4 h. After starvation, the cells were washed with PBS and incubated in a starvation medium containing 0.5 nM murine (BMMs) or human (CD14+) M-CSF and 100 nM (CD14^+ cells) or 1 μM (BMMs) of either M-CSFC31S or M-CSFC31S,M27R for 1 min. To test the phosphorylation levels in the absence of murine M-CSFWT, we incubated 0.5, 5, 10, 50, 1000 and 5000 nM of M-CSFC31S or M-CSFC31S,M27R and 0.5,5.10 nM of human M-CSFWT with the cells. The positive control contained 0.5 nM murine (BMMs) or human (CD14^+) M-CSF, and the negative control was incubated in starvation medium without any added protein. The cells were transferred to ice, and lysis buffer (deoxycholate 0.5%, […], 10 mM NaPO4, 1 mM sodium orthovanadate, 5 mM EDTA, pH 7.4, 5 mM EGTA, pH 7.4, 100 mM NaCl, 2% Triton X-100) was added. […] The images were quantified using ImageJ. The quantified intensity values of the phosphorylated c-FMS for each sample were divided by the total c-FMS intensity, and then by the β-actin expression intensity. […]
To determine whether M-CSFC31S,M27R binds and also antagonizes c-FMS, the phosphorylation of the receptor following incubation with different M-CSF variants was evaluated. […] The cells were lysed, and the expression and phosphorylation levels of c-FMS were evaluated using western blot. C-FMS phosphorylation level was quantified and normalized. […]
Background: Immunoblotting shows a protein as a band on a membrane.

Three molecules from patent publication US11976099B2, “Compositions and methods for treatment of bone associated diseases” (THE NATIONAL INSTITUTE FOR BIOTECHNOLOGY IN THE NEGEV LTD., priority 2016, dated 2024) can be followed below.

Entries after “also recorded” stand apart in the source; their conditions may differ.

B1: M-CSFM: 158 amino acid M-CSF with cysteine at position 31 replaced by serine (SEQ ID NO: 2) (protein)
chain: EEVSEYCSHMIGSGHLQSLQRLIDSQMETSSQITFEFVDQEQLKDPVCYLKKAFLLVQDIMEDTMRFRDNTPNAIAIVQLQELSLRLKSCFTKDYEEHDKACVRTFYETPLQLLEKVKNVFNETKNLLDKDWNIFSKNCNNSFAECSSQGHERQSEGS
As to B1, the c-FMS phosphorylation level result (BMMs) was “increased levels of phosphorylation”.

B2: M-CSFWT: wild-type human M-CSF, disulfide-bond-linked homodimer which binds and activates c-FMS (protein)
chain: EEVSEYCSHMIGSGHLQSLQRLIDSQMETSCQITFEFVDQEQLKDPVCYLKKAFLLVQDIMEDTMRFRDNTPNAIAIVQLQELSLRLKSCFTKDYEEHDKACVRTFYETPLQLLEKVKNVFNETKNLLDKDWNIFSKNCNNSFAECSSQGHERQSEGS
In the case of B2, the “peak concentration of bell-shaped c-FMS phosphorylation curve” value (BMMs, 1 minute, without murine M-CSF) is 5 nM.

B3: M-CSFC31S,M27R: M-CSF double mutant containing both C31S and M27R; monomeric, monospecific c-FMS antagonist (protein)
chain: EEVSEYCSHMIGSGHLQSLQRLIDSQRETSSQITFEFVDQEQLKDPVCYLKKAFLLVQDIMEDTMRFRDNTPNAIAIVQLQELSLRLKSCFTKDYEEHDKACVRTFYETPLQLLEKVKNVFNETKNLLDKDWNIFSKNCNNSFAECSSQGHERQSEGS
B3: the “c-FMS phosphorylation (agonist activity)” value (0.5-5000 nM without murine M-CSF) is given as “very limited c-FMS phosphorylation at any concentration other than 5 μM; also recorded: did not exhibit phosphorylation capabilities in concentrations lower than 5 μM”. Also, under “BMMs”, the c-FMS phosphorylation level result is given as “lower levels of phosphorylated c-FMS”.
